These results are taken from article PMC9861546.

Test [1] has as its target chimeric L1:P18I10 capsid protein (HPV16 L1 with the HIV-1 P18I10 peptide in the DE loop), VLPs (human papillomavirus type 16 | HIV-1) (UniProt P03101). As to the kind of experiment: cross-linking; disulfide cross-linking seen by non-reducing SDS-PAGE; VLPs in Laemmli sample buffer without or with 5% 2-mercaptoethanol, room temperature, 24 h; blot with anti-HPV16 L1 CAMVIR-1.

The target of test [2] is chimeric L1:T20 capsid protein (HPV16 L1 with the HIV-1 T20 peptide in the DE loop), VLPs (human papillomavirus type 16 | HIV-1) (UniProt P03101). The test is described as above.

In test [1], “chimeric L1:P18I10 capsid protein (HPV16 L1 with the HIV-1 P18I10 peptide in the DE loop), VLPs (from UniProt P03101 1-129; P03101 137-505)” returned a percent of L1 disulfide bonded into dimers or pentamers of 70%.

For “chimeric L1:T20 capsid protein (HPV16 L1 with the HIV-1 T20 peptide in the DE loop), VLPs (from UniProt P03101 1-129; P03101 137-505)”, in test [2], the percent of L1 disulfide bonded into dimers or pentamers turned out to be 70%.
